Experimental data taken from US20220220215A1 (CRESCENDO BIOLOGICS, published 2022).
Where a chain is given by its changes, count along the chain named. Numbers in names are those of the source. Values belong to the binder of their own block, whether it stands above or below them.

Columns and labels:
[1] = target: T1, biotinylated human CD137-His (human, UniProt Q07011 24-186, biotinylated); experiment: SPR, Biacore 8K, multi-cycle kinetics; biotinylated antigen captured on streptavidin chip; 1:1 model
T1 construct: not shown: His tag
Protocol: (§1) Multi cycle kinetics assays were then used to evaluate the kinetics and affinity of the interaction. Experiments were performed at […] in HBS-EP+ assay buffer with a flow rate of 30 μl/minute. A streptavidin chip (Streptavidin (SA), Series S, GE Healthcare BR100531) was used to capture the biotinylated human CD137 or human PD-1 reaching a maximum of 75RU or 200RU respectively. A second flow cell without any captured antigen was used as the reference cell. […] The binding kinetics were followed by flowing these over the chip surface. The contact time for the binding steps was 360 or 180 seconds and the dissociation step was 3600 or 1200 seconds for human CD137 and PD1 respectively. After each run, the sensors were regenerated with glycine pH 1.5 to remove the captured Humabody® VH. The data was fitted to a 1:1 binding model after reference subtraction using the Biacore Evaluation software. Example kinetic and binding affinity data obtained is shown Table 19.

[2] = target: T2, biotinylated human PD-1-His tagged protein (human, UniProt Q15116 25-170, biotinylated); experiment: as above
T2 construct: not shown: His tag
Protocol: as §1

[3] = target: human CD137 expressed on cells (Jurkat human CD137 NF-kB luciferase reporter cells; human CD8+ T cells) (human, UniProt Q07011 24-255); experiment: cell-based or functional assay
[4] = target: T3, Rhesus CD137-Fc tagged protein (rhesus, UniProt H9Z8K9 24-186); experiment: BLI (Octet RED384), CD137-Fc on Protein G sensor, 1:1 model
T3 construct: extracellular domain; The Octet paragraph gives no catalogue number; also called rhCD137-Fc
Protocol: (§2) Binding kinetics of purified monovalent VH molecules were measured on a ForteBio Octet RED 384 instrument. Human and Rhesus CD137-Fc tagged protein was diluted to 5 μg/ml in kinetics buffer (0.05% Tween, 1×PBS) and coupled to Protein G biosensors (ForteBio cat no. 18-5082) via the Fc tag. VH were serially diluted (typically 1:2 dilution series starting with 200 nM, VH at the highest concentration) and binding to the CD137-Fc-coupled Protein G biosensors measured. Binding kinetics were determined from the (blank subtracted) sensor gram trace using 1:1 binding models and ForteBio Octet Data Analysis 9.0 software. Example kinetic and binding affinity data obtained is shown Table 18 (monovalent VH).

[5] = target: T4, human CD137-Fc recombinant protein (Acro Biosystems 41B-H5258) (human, UniProt Q07011 24-186); experiment: as above
T4 construct: Bought protein; The Octet paragraph gives no catalogue number for its human CD137-Fc; also called hCD137-Fc; CD137-Fc tagged protein
Protocol: as §2

[6] = target: T5, human CD137 expressed on CHO cells (human, UniProt Q07011 18-255); experiment: FMAT/Mirrorball on CHO huCD137 cells
T5 construct: also called CHO huCD137; CHO human CD137 cells
In short: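 His-tagged VH molecules bound to CHO cells expressing human PD-1 or human CD137, with CHO parent cells as control, in PBS pH 7.4, 0.1% BSA, 0.05% sodium azide. Read by FMAT on Mirrorball (ex 488/640 nm); binding taken as FL2 median fluorescence intensity of FL5-gated events.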

[7] = target: T6, recombinant Fc-tagged ectodomain of cynomolgus PD1 (Acro Biosystems PD1-C5254) (cynomolgus macaque, UniProt B0LAJ3 25-170); experiment: SPR, Biacore 8K, single-cycle kinetics; Fc-tagged ectodomain captured on Protein G chip; 1:1 model
T6 construct: Bought protein; also called Cyno PD1; cynomolgus macaque PD1; not shown: Fc tag and any linker to it
Protocol: (§3) Binding of Humabody® VH constructs was measured using a single-cycle kinetics method using the BIAcore 8K instrument with 90 second sample injections with a sample concentration range of low nanomolar to high nanomolar. […] The Protein G sensor surface was regenerated with a 20 second injection of 10 mM Glycine buffer, pH 1.5 (GE Healthcare BR100354). Data were analysed using a 1:1 binding model in Biacore Insight Evaluation software, including Humabody® VH constructs with two PD-1 arms.

[8] = target: T7, recombinant Fc-tagged ectodomain of cynomolgus CD137 (R&D S9324-4b) (cynomolgus macaque, UniProt A9YYE7 24-186); experiment: as above
T7 construct: Bought protein; also called Cyno CD137; cynomolgus macaque CD137; not shown: Fc tag and any linker to it
Protocol: as §3

[9] = target: T8, recombinant Fc-tagged ectodomain of human PD1 (Acro Biosystems PD1-H5257) (human, UniProt Q15116 25-170); experiment: as above
T8 construct: Bought protein; not shown: Fc tag
Protocol: as §3

[10] = target: T9, recombinant Fc-tagged ectodomain of human CD137 (Acro Biosystems 41B-H5258) (human, UniProt Q07011 24-186); experiment: as above
T9 construct: Bought protein; not shown: Fc tag
Protocol: as §3

B2: TPP-1027: CD137A-6GS-HSA2-6GS-PD138G7(G109D)-His (bispecific antibody)
chain: EVQLVESGGGLVQPGGSLRLSCAASGFTLSNYWMNWVRQAPGKGLEWVANINQDGSERYYVDSVKGRFTISRDNAKNSLYLQMNSLRAEDTAVYYCARGGEGYGVDHYGLDVSGQGTTVTVSSGGGGSGGGGSGGGGSGGGGSGGGGSGGGGSEVQLVESGGGLVKPGGSLRLSCAASGFTFSNYNMNWVRQAPGKGLEWVSSISSAGTHIYYADSVKGRFTISRDNAKNSLYLQMNSLRAEDTAVYYCARDPHSTGWYKDFDYWGQGTLVTVSSGGGGSGGGGSGGGGSGGGGSGGGGSGGGGSEVQLVESGGGVVRPGGSLRLSCAASGFTFDDYAMSWVRQAPGKGLEWVSGITWNGGSTGYADSVKDRFTISRDNAKNSLYLQMNSLRAEDTALYYCVRDKYSYAWSYDDFDIWGQGTMVTVSSAAAHHHHHH
Kd [1]: 0.023 nM
koff [1]: 2.87e-05 s⁻¹
kon [1]: 1.25e+06 M⁻¹ s⁻¹
Kd [2]: 5.95 nM
koff [2]: 0.00246 s⁻¹
kon [2]: 413000 M⁻¹ s⁻¹
Jurkat-CD137/CHO-PD-1 Reporter Assay EC50 [3]: 0.238 nM

B5: TPP-1247 CD137A-6GS-HSA3-6GS-PD138G7(G109D) (bispecific antibody)
chain: EVQLVESGGGLVQPGGSLRLSCAASGFTLSNYWMNWVRQAPGKGLEWVANINQDGSERYYVDSVKGRFTISRDNAKNSLYLQMNSLRAEDTAVYYCARGGEGYGVDHYGLDVSGQGTTVTVSSGGGGSGGGGSGGGGSGGGGSGGGGSGGGGSEVQLLESGGGLVKPGGSLRLSCAASGFTVSSYTMNWVRQAPGKGLEWVSSISSSGRYIYYADSVKGRFTISRDNAKNSLYLQMNSLRAEDTAVYYCARDPRMVGNPHEFDIWGQGTMVTVSSGGGGSGGGGSGGGGSGGGGSGGGGSGGGGSEVQLVESGGGVVRPGGSLRLSCAASGFTFDDYAMSWVRQAPGKGLEWVSGITWNGGSTGYADSVKDRFTISRDNAKNSLYLQMNSLRAEDTALYYCVRDKYSYAWSYDDFDIWGQGTMVTVSS
Kd [7]: 16.9 nM
koff [7]: 0.00494 s⁻¹
kon [7]: 293000 M⁻¹ s⁻¹
Kd [8]: 0.543 nM
koff [8]: 0.00017 s⁻¹
kon [8]: 313000 M⁻¹ s⁻¹
Kd [9]: 7.77 nM
koff [9]: 0.00214 s⁻¹
kon [9]: 276000 M⁻¹ s⁻¹
Kd [10]: 0.295 nM
koff [10]: 9.85e-05 s⁻¹
kon [10]: 334000 M⁻¹ s⁻¹
Jurkat-CD137/CHO-PD-1 Reporter Assay EC50 [3]: 0.0583 nM

B6: TPP-1010: PD138G7(G109D)-6GS-HSA2-6GS-CD137D-His (bispecific antibody)
chain: EVQLVESGGGVVRPGGSLRLSCAASGFTFDDYAMSWVRQAPGKGLEWVSGITWNGGSTGYADSVKDRFTISRDNAKNSLYLQMNSLRAEDTALYYCVRDKYSYAWSYDDFDIWGQGTMVTVSSGGGGSGGGGSGGGGSGGGGSGGGGSGGGGSEVQLVESGGGLVKPGGSLRLSCAASGFTFSNYNMNWVRQAPGKGLEWVSSISSAGTHIYYADSVKGRFTISRDNAKNSLYLQMNSLRAEDTAVYYCARDPHSTGWYKDFDYWGQGTLVTVSSGGGGSGGGGSGGGGSGGGGSGGGGSGGGGSEVQLVESGGGVVQPGGSLRLSCAASGFTFSNYGMHWVRQAPGKGLEWVAVISNDGNTKTYADSVKGRFTISRDNSKNTLYLQMNSLRAEDTAVYYCAQDETTTVTASYYFDYWGQGTLVTVSSAAAHHHHHH
Kd [1]: 21.1 nM
koff [1]: 0.00366 s⁻¹
kon [1]: 173000 M⁻¹ s⁻¹
Kd [2]: 5.5 nM
koff [2]: 0.00274 s⁻¹
kon [2]: 498000 M⁻¹ s⁻¹
Jurkat-CD137/CHO-PD-1 Reporter Assay EC50 [3]: 2.29 nM

B7: TPP-1245 CD137A-6GS-PDA2-6GS-HSA2 (bispecific antibody)
chain: EVQLVESGGGLVQPGGSLRLSCAASGFTLSNYWMNWVRQAPGKGLEWVANINQDGSERYYVDSVKGRFTISRDNAKNSLYLQMNSLRAEDTAVYYCARGGEGYGVDHYGLDVSGQGTTVTVSSGGGGSGGGGSGGGGSGGGGSGGGGSGGGGSEVQLVESGGGVVRPGGSLRLSCAASGFTFDDYAMSWVRQAPGKGLEWVSGITWNAGSTGYADSVKGRFTISRDNAKNSLYLQMNSLRAEDTALYYCVRDKYSYAWSYDDFDIWGQGTMVTVSSGGGGSGGGGSGGGGSGGGGSGGGGSGGGGSEVQLVESGGGLVKPGGSLRLSCAASGFTFSNYNMNWVRQAPGKGLEWVSSISSAGTHIYYADSVKGRFTISRDNAKNSLYLQMNSLRAEDTAVYYCARDPHSTGWYKDFDYWGQGTLVTVSS
Kd [7]: 102 nM
koff [7]: 0.0505 s⁻¹
kon [7]: 493000 M⁻¹ s⁻¹
Kd [8]: 0.728 nM
koff [8]: 0.000263 s⁻¹
kon [8]: 361000 M⁻¹ s⁻¹
Kd [9]: 87.6 nM
koff [9]: 0.0762 s⁻¹
kon [9]: 869000 M⁻¹ s⁻¹
Kd [10]: 0.471 nM
koff [10]: 0.000179 s⁻¹
kon [10]: 381000 M⁻¹ s⁻¹
Jurkat-CD137/CHO-PD-1 Reporter Assay EC50 [3]: 0.113 nM

B8: TPP-973: CD137A-6GS-PDA2-6GS-HSA2-His (bispecific antibody)
chain: EVQLVESGGGLVQPGGSLRLSCAASGFTLSNYWMNWVRQAPGKGLEWVANINQDGSERYYVDSVKGRFTISRDNAKNSLYLQMNSLRAEDTAVYYCARGGEGYGVDHYGLDVSGQGTTVTVSSGGGGSGGGGSGGGGSGGGGSGGGGSGGGGSEVQLVESGGGVVRPGGSLRLSCAASGFTFDDYAMSWVRQAPGKGLEWVSGITWNAGSTGYADSVKGRFTISRDNAKNSLYLQMNSLRAEDTALYYCVRDKYSYAWSYDDFDIWGQGTMVTVSSGGGGSGGGGSGGGGSGGGGSGGGGSGGGGSEVQLVESGGGLVKPGGSLRLSCAASGFTFSNYNMNWVRQAPGKGLEWVSSISSAGTHIYYADSVKGRFTISRDNAKNSLYLQMNSLRAEDTAVYYCARDPHSTGWYKDFDYWGQGTLVTVSSAAAHHHHHH
Kd [1]: 0.108 nM
koff [1]: 2.57e-05 s⁻¹
kon [1]: 237000 M⁻¹ s⁻¹
Kd [2]: 71.6 nM
koff [2]: 0.014 s⁻¹
kon [2]: 195000 M⁻¹ s⁻¹
Jurkat-CD137/CHO-PD-1 Reporter Assay EC50 [3]: 0.254 nM

Next, values leading:

Kd [1]: 0.0281 nM
koff [1]: 1.9e-05 s⁻¹
kon [1]: 674000 M⁻¹ s⁻¹
Kd [2]: 5.83 nM
koff [2]: 0.00235 s⁻¹
kon [2]: 403000 M⁻¹ s⁻¹
Jurkat-CD137/CHO-PD-1 Reporter Assay EC50 [3]: 0.312 nM
B1: TPP-1028: CD137A-6GS-HSA3-6GS-PD138G7(G109D)-His (bispecific antibody)
chain: EVQLVESGGGLVQPGGSLRLSCAASGFTLSNYWMNWVRQAPGKGLEWVANINQDGSERYYVDSVKGRFTISRDNAKNSLYLQMNSLRAEDTAVYYCARGGEGYGVDHYGLDVSGQGTTVTVSSGGGGSGGGGSGGGGSGGGGSGGGGSGGGGSEVQLLESGGGLVKPGGSLRLSCAASGFTVSSYTMNWVRQAPGKGLEWVSSISSSGRYIYYADSVKGRFTISRDNAKNSLYLQMNSLRAEDTAVYYCARDPRMVGNPHEFDIWGQGTMVTVSSGGGGSGGGGSGGGGSGGGGSGGGGSGGGGSEVQLVESGGGVVRPGGSLRLSCAASGFTFDDYAMSWVRQAPGKGLEWVSGITWNGGSTGYADSVKDRFTISRDNAKNSLYLQMNSLRAEDTALYYCVRDKYSYAWSYDDFDIWGQGTMVTVSSAAAHHHHHH

Kd [4]: 21.9 nM
koff [4]: 0.00267 s⁻¹
kon [4]: 122000 M⁻¹ s⁻¹
Kd [5]: 17.8 nM
koff [5]: 0.00214 s⁻¹
kon [5]: 120000 M⁻¹ s⁻¹
EC50 [6]: 1.35 nM
B3: 003BB172-E01-1 (VHH)
VHH: EVQLVESGGGLVQPGGSLRLSCAASGFTFSNYGMHWVRQAPGKGLEWVAVISNDGNTKTYADSVKGRFTISRDNSKNMLYLQMTSLRTEDTAVYYCAQDETTTVTASYYFDYWGQGTLVTVSS
notes: Human VH single domain antibody, monovalent

Kd [4]: 25.9 nM
koff [4]: 0.00159 s⁻¹
kon [4]: 61300 M⁻¹ s⁻¹
Kd [5]: 18.6 nM
koff [5]: 0.00137 s⁻¹
kon [5]: 73200 M⁻¹ s⁻¹
EC50 [6]: 1.74 nM
B4: 003BB172-E01-2 (VHH)
VHH: B3 VHH with G44R, M78T
notes: as for B3
